Data on four molecules can be found in patent US20070086998A1 (GPC BIOTECH, published 2007).

Assay [1] deals with T1, chimeric DR-IE (human-mouse chimeric MHC class II molecule) (human; murine). Briefly: cell-based or functional assay.
Assay [2] addresses T2, HLA-DR on PRIESS cells (DRA*0101/DRB1*0401) (human, UniProt P01903 26-254; P01911 30-266).
T2 MHC II alpha: not shown
T2 MHC II beta: not shown
Briefly: cell-based or functional assay.

The target of assay [3] is HLA-DR on LG-2 cells (human). The experiment in a line: cell-based or functional assay.
Assay [4] deals with T2, HLA-DR on PRIESS cells …. The experiment in a line: cell-based or functional assay.
Assay [5] addresses HLA-DR on LG-2 cells (human). Briefly: cell-based or functional assay. The source holds these as a separate data set.
In assay [6] the target is T1, chimeric DR-IE (human-mouse chimeric …). The experiment in a line: cell-based or functional assay. This is another data set of the same source.
Assay [7] has as its target T2, HLA-DR on PRIESS cells …. Briefly: cell-based or functional assay.
The target of assay [8] is T3, human MHC class II DR protein (DRA*0101/DRB1*0401), purified (human, UniProt P01903 26-254; P01911 30-266, limits assumed).
T3 construct: mature; Detergent-solubilised protein purified from PRIESS cell lysate on an LB3.1 column; also called HLA-DR protein
T3 MHC II alpha: not shown
T3 MHC II beta: not shown
Briefly: not stated (Z. A. Nagy, unpublished).

Positions count from the first letter of the chain named.

B1: MS-GPC-8-10-57 (IgG4 form) (antibody, V domains shown)
VH: QVELKESGPALVKPTQTLTLTCTFSGFSLSTSGVGVGWIRQPPGKALEWLALIDWDDDKYYSTSLKTRLTISKDTSKNQVVLTMTNMDPVDTATYYCARSPRYRGAFDYWGQGTLVTVSS
VL: DIVLTQPPSVSGAPGQRVTISCSGSESNIGNNYVQWYQQLPGTAPKLLIYDNNQRPSGVPDRFSGSKSGTSASLAITGLQSEDEADYYCQSYDLIRHVFGGGTKLTVLG
On to B1, for which the “IC50 value for inhibition of T cell proliferation (lymph node cells of chimeric 0401-IE transgenic mice, ovalbumin)” value in assay [1] came out at 11 nM. Besides, the “% Killing by mAb; PRIESS (DR 4,4); 50 nM, 4 h” value in assay [2] was 93%. Besides, the “% Killing by mAb; LG-2 (DR 1,1); 50 nM, 4 h” value in the assay with HLA-DR on LG-2 cells [3] worked out at 88%. Further, the “EC50 of cell killing for bivalent agent; PRIESS; IgG4” value in assay [4] was determined as 1.1 nM. Further, the “EC50 of cell killing for bivalent agent; LG2; IgG4” value with HLA-DR on LG-2 cells [5] came to 1 nM. In assay [6], the “IC50, IL-2 secretion of T-Hyb 1 cells stimulated by 0401-IE transgenic APC; IgG” value was 0.31 nM and the “Maximum inhibition(%), IL-2 secretion of T-Hyb 1 cells; IgG” value amounted to 100%.

B2: MS-GPC-8-27-41 (IgG4 form) (antibody, V domains shown)
VH: B1 VH
VL: B1 VL with L94M, I95N, R96V
For B2, in assay [1], the “IC50 value for inhibition of T cell proliferation (lymph node cells of chimeric 0401-IE transgenic mice, ovalbumin)” value was found to be 20 nM. The “% Killing by mAb; PRIESS (DR 4,4); 50 nM, 4 h” value in assay [2] is 88%. Besides, the “% Killing by mAb; LG-2 (DR 1,1); 50 nM, 4 h” value with HLA-DR on LG-2 cells [3] came out at 87%. The “EC50 of cell killing for bivalent agent; PRIESS; IgG4” value in assay [4] turned out to be 1.1 nM. For the same molecule, the “EC50 of cell killing for bivalent agent; LG2; IgG4” value with HLA-DR on LG-2 cells [5] came to 1.23 nM. Besides, in assay [6], the “IC50, IL-2 secretion of T-Hyb 1 cells stimulated by 0401-IE transgenic APC; IgG” value is 0.28 nM and the “Maximum inhibition(%), IL-2 secretion of T-Hyb 1 cells; IgG” value was 100%.

B3: MS-GPC-8-Fab (Fab, V domains shown)
VH: B1 VH with E3Q
VL: B1 VL with E26S, N31S, Q35S, L94M, I95P, R96Q, H97A
Turning to B3, the “maximum killing capacity against PRIESS cells, cross-linked bivalent fragment” value in assay [7] amounted to 84%. Further, the “EC50 of cell killing for bivalent agent; PRIESS; Fab cross-linked with anti-FLAG M2” value in assay [4] came to 31 nM. For the same molecule, in assay [6], the “IC50, IL-2 secretion of T-Hyb 1 cells stimulated by 0401-IE transgenic APC; Fab” value was 110 nM (Fab concentration/2) and the “Maximum inhibition(%), IL-2 secretion of T-Hyb 1 cells; Fab” value was determined as 100%.

B4: L243 (antibody, V domains shown)
VH: QIQLVQSGPELKKPGETVKISCKASGFTFTNYGMNWVKQAPGKGLKWMGWINTYTREPTYADDFKGRFAFSLETSASTAYLQINNLKNEDTAKYFCARDITAVVPTGFDYWGQGTTLTVSS
VL: DIQMTQSPASLSVSVGETVTITCRASENIYSNLAWYRQKQGKSPQLLVFAASNLADGVPSRFSGSGSGTQYSLKINSLQSEDFGDYYCQHFWTTPWAFGGGTNLEIK
On to B4, for which the Kd (commonly a measure of binding affinity in units of concentration) in assay [8] is 10 nM.
